Results published in PMC6815173.
Like-named read-outs stand apart in the source and are kept apart here.

How the values were obtained:
Test in all cases: SPR
[1] = molecular target: actin-binding domain (ABD) of α-catenin (human)
[2] = molecular target: M domain of α-catenin (human)
[3] = molecular target: actin-binding domain (ABD) of α-catenin (human); remark: listed apart in the source

## β-catenin•epithelial cadherin cytoplasmic domain complex (BE) (from UniProt P35222;P12830)
[1]
  Kd: 466 nM
[2]
  Kd: 104 nM
  koff: 0.0013 s⁻¹
[3]
  Kd: 486 nM
